Earlier results as cited in PMC10349181.

Target: Amyloid beta (Homo sapiens) (UniProt P05067)
Sequence (P05067 672-711): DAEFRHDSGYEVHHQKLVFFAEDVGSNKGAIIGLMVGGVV

VEGF-A, sequence (P15692 whole entry): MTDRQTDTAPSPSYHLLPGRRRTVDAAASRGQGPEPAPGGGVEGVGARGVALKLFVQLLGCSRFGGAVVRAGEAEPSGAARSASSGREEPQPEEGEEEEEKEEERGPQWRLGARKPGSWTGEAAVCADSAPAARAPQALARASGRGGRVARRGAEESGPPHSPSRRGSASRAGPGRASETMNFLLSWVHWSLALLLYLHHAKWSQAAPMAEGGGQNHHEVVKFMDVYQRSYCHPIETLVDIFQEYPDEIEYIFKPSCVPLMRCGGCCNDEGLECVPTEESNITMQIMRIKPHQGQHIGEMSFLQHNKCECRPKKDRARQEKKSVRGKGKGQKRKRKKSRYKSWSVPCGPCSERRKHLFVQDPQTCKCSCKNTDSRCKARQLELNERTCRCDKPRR

Question: With VEGF-A (from UniProt P15692) as the substance, how does the Kd read?
Answer: 0.05 nM
